Our source for the Ki values is US7019123.

The test deals with Tissue Factor VIIa (UniProt P13726). The experiment in a line: enzyme inhibition; Tissue Factor VIIa.

B1: recombinant placental bikunin (1-170) from baculovirus/Sf9 cells (protein)
chain: ADRERSIHDFCLVSKVVGRCRASMPRWWYNVTDGSCQLFVYGGCDGNSNNYLTKEECLKKCATVTENATGDLATSRNAADSSVPSAPRRQDSEDHSSDMFNYEEYCTANAVTGPCRASFPRWYFDVERNSCNNFIYGGCRGNKNSYRSEEACMLRCFRQQENPPLPLGSK
modifications: chain 1 pos 30: Asn probably N-glycosylated (no PTH residue at cycle 30), written N; six intrachain disulfides of the two Kunitz domains
The Ki is a measure of affinity in units of concentration, obtained from inhibition or displacement. Lower therefore signals tighter binding. On to B1, for which the Ki stood at 800 nM.
